Measured values published in article PMC5464773.

Biological target: Myc-tagged Bfl-1 (human) (UniProt Q16548)
Assay: fluorescence polarisation; competition: 0–10 μM unlabeled peptide titrated into 50 nM c-myc-tagged receptor plus 25 nM fluoresceinated BIM; 25 mM Tris pH 7.8, 50 mM NaCl, 1 mM EDTA, 5% DMSO, 0.001% v/v Triton-X; 23°C, 3 hr; fit to a complete competitive binding model

Myc-tagged Bfl-1 (human), sequence (Q16548 whole entry): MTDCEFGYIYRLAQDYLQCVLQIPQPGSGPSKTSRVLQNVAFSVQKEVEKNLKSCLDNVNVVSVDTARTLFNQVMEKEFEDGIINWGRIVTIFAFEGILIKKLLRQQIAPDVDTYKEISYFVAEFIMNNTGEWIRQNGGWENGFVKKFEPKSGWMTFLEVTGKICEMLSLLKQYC

Ki: < 0.1 nM
Substance: BIM BH3 peptide (unlabeled) (peptide; other documents disagree on this pair)
